The source of these data is the DeepSol protein solubility set.

The data set in a line: soluble on expression in E. coli; label from the status in PepcDB or PDB records.
As to “MLEQVCQLARNAGDAIMQVYDGAKPMEYARKQDDSPVTAADIAAHTVILEGLRTLTPDIPVLSEEDPPAWEVRQHWQRYWLVDPLDGTKEFIKRNGEFTVNIALIEQGKPVLGVVYAPVLKVMYYAAEGKAWKEECGVRKQIQVRDARPPLVVISRSHTDDELTEYLQQLGEHQTTSIGSSLKFCLVAEGQAQLYPRFGPTSVWDTAAGHAIAVAAGAHVHDWQGKTLDYTPRESFLNPGFRVTIY”, the “soluble on expression in E. coli” value was “not soluble”.
With “MLETDLEARMQILRESGFQESQGDDDTFAQRAEWFYQGRPLLLSLCLDLYNGYVTLLGRSSHQTRLKPTTSLPNQLLQDDDDCISDIDSVSEVSSEVESTLSFQQMKDPTAVSEKVDELVSQLVTASLDKEILKHELLHKDQQFHEASKTIELLKKFVMLLEMEKEVAVEENANLGYKLTSLLEENRELATEALFMKNEAVGLARCVLKMRDDHFHKVCILQNRIYSLQASRNSEPVSDKVSYGCFGLDKHKTKKKKENKTEEKKPGFKWLKKLNTINLFTKCSLNPSAAAPSCCTFDLPY”, the “soluble on expression in E. coli” value is “not soluble”.
The entry for “MLFEDEVGETPGGESYATVVNSRLSELLKRDRIVALLTNPDEVELIEQIECINYKPSISGTGGFVFFVHGDRKTYKILDTDRLALWEDTAATKDVRMSEETRLRFDQNNHLQVSKAKLALDHNGFTLYENTATLARCRRHNKKVVYVLRNGHQYGHGLIMYQYVKPGAHPDPLHQTVQLMTDAWFDILPPDIRMVVYYLLKYNHADETARIVHREHSVYLSRMKAGRPPPPSTSACTS” is “not soluble”; for “MLFTEMEIEIPKAVFEELQLYIEYLQEKTGKTIDPMAAIGNILQTYFENNGLWGVSEEDFKEKAKIAVKKLLTKKAKKDKPLLTKKVEKLLTQAVEIEQVPAKTAGQIAYQAKALVQVTFPHRDPKTPYYRCDSGKYSLIITADPDHGIPYGTYPRLITCWLVTEIVRTNSRRIVLGKCFSDFLRSIGVGLDSRTRKQVEQQIKRLFSADIKLKYNSKESWQFQRCNVATKAAMWWDTKNPDQFTLDESFVVVGEDFYAMALNAPFPIDLRALAALKQSPMALDIYMWLTLRMCHLAAPYPLSWPQLKSQFGPETSDLDNFRTKFKDALKKVRVVYPHAKLSVNAKELTLFPSPTHVQKAVKRVAALEHHHHHH” it is “soluble”.
Consider “MLGGFVMDLFPFLPGVRISLQSGWLPSGAADALLAGLLEGVPWEVHRIHIFGREVNSPRLSCWVGDPQASYRYSGRCFQPRPWWPALAELRMCLEGETGAVFNSVLLNRYRHGGDAIGWHSDDEAELGIDPLIASVSLGASRRFVFRHRRERHLRAECVLSHGDLLLMGGTTQRDYQHALPRTLRVVGERVNLTFRRILMLEHHHHHH”, for which the “soluble on expression in E. coli” value was “soluble”.
Under “MLGIHRYDENLPPDELARDYLERTLFVMERVKFHTLAHLDYPARYAKADFKANRDLIEKILVFLVKNEKALEINTAGLFKHGKPNPDYWIVEMYYDLGGRVVTIGSDAHESQHIGRG” stands “soluble”.
Consider “MLGKGGKRKFDEHEDGLEGKIVSPCDGPSKVSYTLQRQTIFNISLMKLYNHRPLTEPSLQKTVLINNMLRRIQEELKQEGSLRPMFTPSSQPTTEPSDSYREAPPAFSHLASPSSHPCDLGSTTPLEACLTPASLLEDDDDTFCTSQAMQPTAPTKLSPPALLPEKDSFSSALDEIEELCPTSTSTEAATAATDSVKGTSSEAGTQKLDGPQESRADDSKLMDSLPGNFEITTSTGFLTDLTLDDILFADIDTSMYDFDPCTSSSGTASKMAPVSADDLLKTLAPYSSQPVTPSQPFKMDLTELDHIMEVLVGS”, for which the “soluble on expression in E. coli” value was “soluble”.
For “MLGSIACSMEFEDFDLYSYFYGLVKQIPEGYVTTYGDLAQALGDPIAARAVGYMLSINEDPDTIPCYRVVLHDGTVGNYTHPLGPMEKVRRLRADGIPVVDGMIENFDRYRFRDFKTDQPLRKMQQYQEYIARKYSESGAGEFRTVAAFDVSYEERRAFASMVIQDGSTIEAYVISDGINFPYIPGYLAFREFRFIKKLYRKADLLLIDGNGILHPRFAGLATHAGVLLDRASIGVAKHLTRSTRHQDIIYMQDRPVGVMIRKNMIVSPGNFIDVNGSADTVRKMWNDRYPWPLKLAHQLSTRHAETGGRVSEYSIESAHELHLEHHHHHH”, the “soluble on expression in E. coli” value is “soluble”.
Under “MLGYAFPSILGNLMSKIYQMDAVDWLKTLENCSVDLFITDPPYESLEKYRQIGTTTRLKESKSSSNQWFSVFPNTRFEELFREVYRVLKKGSHFYLFCDQETMFLAKPIAESVGFKFWKPIVWDKCAIGMGYHYRARYEFILFFEKGKRKLNDLSVPDVLEYKRVWKGYPTEKPVELLEVLIRQSSSENEIVADSFFGSGSTLIAANNLSRKYIGCDISSSAHEYFKNRA” stands “not soluble”.
